Test results as given in the supplement of paper PMC10065799, “High-throughput profiling of sequence recognition by tyrosine kinases and SH2 domains using bacterial peptide display” (eLife, 2023).

Experiments:
FGFR3 = FGFR3 (UniProt P22607); assay: phosphorylation enrichment, bacterial display (enrichment ratio); higher = better substrate or ligand; peptides without Tyr show the background
Fer (mouse) = assay: as above
c-Src = assay: as above
EPHB2 = EPHB2 (UniProt P29323); assay: as above
EPHB1 = EPHB1 (UniProt P54762); assay: as above
Fyn = Fyn (UniProt P06241); assay: as above
Jak2 = Jak2 (UniProt O60674); assay: as above
Fes = Fes (UniProt P07332); assay: as above
Hck = Hck (UniProt P08631); assay: as above
FGFR1 = FGFR1 (UniProt P11362); assay: as above
MERTK = MERTK (UniProt Q12866); assay: as above
c-Abl (mouse) = assay: as above
AncSZ = assay: as above
SHP2-C SH2 = assay: SH2 binding enrichment of the phosphorylated peptide, bacterial display (enrichment ratio); higher = better substrate or ligand; peptides without Tyr show the background
c-Src SH2 = assay: as above
Grb2 SH2 = Grb2 SH2 (UniProt P62993); assay: as above
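For SH2 binding enrichment of the phosphorylated peptide, bacterial display in this document: peptide library displayed on the E. coli surface as eCPX fusions, selected cells deep-sequenced, score is each peptide's frequency after selection divided by its frequency in the input.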
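For phosphorylation enrichment, bacterial display in this document: 11-residue human phosphosite peptides and single-mutation variants displayed on the E. coli surface, counted by deep sequencing, each peptide's frequency after selection divided by its frequency in the unselected input library; frequency after pTyr selection over input frequency; kinase dosed for 20-30% of maximal phosphorylation in three min.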

Sequence of Grb2 SH2 (P62993 whole entry, looked up, the tested form may be a part): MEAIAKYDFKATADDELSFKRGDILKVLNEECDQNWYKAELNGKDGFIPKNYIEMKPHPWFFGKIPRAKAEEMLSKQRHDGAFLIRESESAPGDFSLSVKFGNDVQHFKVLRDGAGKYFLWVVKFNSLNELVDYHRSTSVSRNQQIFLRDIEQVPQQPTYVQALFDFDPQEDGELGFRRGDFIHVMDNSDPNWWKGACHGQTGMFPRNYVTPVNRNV
Sequence of Fes (P07332 whole entry, looked up): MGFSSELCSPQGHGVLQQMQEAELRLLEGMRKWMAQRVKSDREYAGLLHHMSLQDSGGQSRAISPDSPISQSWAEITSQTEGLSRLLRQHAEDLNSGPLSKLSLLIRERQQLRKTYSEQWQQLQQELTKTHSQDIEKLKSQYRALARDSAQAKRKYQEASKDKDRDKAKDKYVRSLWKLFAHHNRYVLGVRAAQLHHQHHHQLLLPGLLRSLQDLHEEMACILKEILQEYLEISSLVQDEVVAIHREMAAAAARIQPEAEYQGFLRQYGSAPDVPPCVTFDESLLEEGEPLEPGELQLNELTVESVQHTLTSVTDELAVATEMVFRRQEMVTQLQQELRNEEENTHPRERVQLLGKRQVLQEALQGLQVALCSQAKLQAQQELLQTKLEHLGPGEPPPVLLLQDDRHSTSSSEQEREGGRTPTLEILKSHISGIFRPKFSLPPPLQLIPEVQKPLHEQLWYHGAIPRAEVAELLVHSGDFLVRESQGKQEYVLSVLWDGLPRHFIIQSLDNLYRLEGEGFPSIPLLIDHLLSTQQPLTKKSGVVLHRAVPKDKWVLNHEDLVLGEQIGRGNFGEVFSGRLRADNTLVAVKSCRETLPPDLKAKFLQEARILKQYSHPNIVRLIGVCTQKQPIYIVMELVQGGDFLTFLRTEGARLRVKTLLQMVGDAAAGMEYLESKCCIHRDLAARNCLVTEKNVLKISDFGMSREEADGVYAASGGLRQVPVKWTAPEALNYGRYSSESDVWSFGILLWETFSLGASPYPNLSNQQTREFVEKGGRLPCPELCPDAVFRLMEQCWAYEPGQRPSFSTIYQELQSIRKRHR
Sequence of EPHB2 (P29323 whole entry, looked up): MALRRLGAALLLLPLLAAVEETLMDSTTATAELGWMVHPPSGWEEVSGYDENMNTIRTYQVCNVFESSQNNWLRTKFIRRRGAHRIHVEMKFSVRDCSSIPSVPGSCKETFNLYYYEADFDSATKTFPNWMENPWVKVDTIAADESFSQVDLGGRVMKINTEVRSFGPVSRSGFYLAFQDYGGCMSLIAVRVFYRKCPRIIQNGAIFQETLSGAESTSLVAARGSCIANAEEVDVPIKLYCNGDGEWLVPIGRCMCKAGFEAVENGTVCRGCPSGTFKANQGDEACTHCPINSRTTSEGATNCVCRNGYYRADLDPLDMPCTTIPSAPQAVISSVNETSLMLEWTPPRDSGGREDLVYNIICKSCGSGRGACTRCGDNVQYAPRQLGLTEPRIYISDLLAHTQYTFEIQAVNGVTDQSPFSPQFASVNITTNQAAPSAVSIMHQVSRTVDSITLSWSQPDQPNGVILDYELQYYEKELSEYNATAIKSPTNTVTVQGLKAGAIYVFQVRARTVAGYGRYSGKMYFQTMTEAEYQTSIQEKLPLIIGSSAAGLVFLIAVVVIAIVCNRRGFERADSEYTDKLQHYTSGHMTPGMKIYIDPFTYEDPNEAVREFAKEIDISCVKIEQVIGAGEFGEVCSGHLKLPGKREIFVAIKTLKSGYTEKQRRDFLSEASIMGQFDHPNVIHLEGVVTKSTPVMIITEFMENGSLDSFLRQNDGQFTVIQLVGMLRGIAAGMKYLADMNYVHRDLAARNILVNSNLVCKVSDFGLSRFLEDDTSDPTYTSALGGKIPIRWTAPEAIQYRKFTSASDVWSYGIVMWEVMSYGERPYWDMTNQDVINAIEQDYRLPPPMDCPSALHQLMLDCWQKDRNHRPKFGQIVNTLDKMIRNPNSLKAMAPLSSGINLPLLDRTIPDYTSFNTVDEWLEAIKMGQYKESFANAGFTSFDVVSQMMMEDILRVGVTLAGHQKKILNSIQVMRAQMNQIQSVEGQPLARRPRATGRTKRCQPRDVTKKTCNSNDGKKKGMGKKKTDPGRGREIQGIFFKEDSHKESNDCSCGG
Sequence of EPHB1 (P54762 whole entry, looked up): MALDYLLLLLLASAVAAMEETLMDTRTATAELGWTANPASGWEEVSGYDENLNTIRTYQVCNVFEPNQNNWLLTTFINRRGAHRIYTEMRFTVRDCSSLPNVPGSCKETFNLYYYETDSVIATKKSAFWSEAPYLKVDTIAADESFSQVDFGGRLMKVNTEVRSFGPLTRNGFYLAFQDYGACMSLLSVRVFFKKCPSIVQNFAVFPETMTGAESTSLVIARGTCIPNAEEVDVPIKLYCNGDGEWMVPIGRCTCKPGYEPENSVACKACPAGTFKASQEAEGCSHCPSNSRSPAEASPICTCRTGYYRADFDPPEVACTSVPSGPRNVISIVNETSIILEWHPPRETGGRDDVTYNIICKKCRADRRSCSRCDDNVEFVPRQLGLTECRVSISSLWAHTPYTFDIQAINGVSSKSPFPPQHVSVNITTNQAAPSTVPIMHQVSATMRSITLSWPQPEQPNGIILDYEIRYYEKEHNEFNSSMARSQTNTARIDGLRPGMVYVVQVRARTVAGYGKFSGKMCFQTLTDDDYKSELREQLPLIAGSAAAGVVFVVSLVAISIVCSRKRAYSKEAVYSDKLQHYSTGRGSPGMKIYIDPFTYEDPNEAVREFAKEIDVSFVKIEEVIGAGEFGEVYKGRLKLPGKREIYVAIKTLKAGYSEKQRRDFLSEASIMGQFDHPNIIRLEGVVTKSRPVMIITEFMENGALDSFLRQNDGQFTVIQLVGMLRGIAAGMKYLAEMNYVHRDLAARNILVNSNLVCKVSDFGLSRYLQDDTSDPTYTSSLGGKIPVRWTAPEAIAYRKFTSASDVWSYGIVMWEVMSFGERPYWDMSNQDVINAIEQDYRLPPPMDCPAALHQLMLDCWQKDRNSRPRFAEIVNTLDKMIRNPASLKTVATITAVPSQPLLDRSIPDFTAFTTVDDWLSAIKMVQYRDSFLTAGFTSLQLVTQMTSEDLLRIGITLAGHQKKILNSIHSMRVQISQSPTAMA
Sequence of FGFR1 (P11362 whole entry, looked up): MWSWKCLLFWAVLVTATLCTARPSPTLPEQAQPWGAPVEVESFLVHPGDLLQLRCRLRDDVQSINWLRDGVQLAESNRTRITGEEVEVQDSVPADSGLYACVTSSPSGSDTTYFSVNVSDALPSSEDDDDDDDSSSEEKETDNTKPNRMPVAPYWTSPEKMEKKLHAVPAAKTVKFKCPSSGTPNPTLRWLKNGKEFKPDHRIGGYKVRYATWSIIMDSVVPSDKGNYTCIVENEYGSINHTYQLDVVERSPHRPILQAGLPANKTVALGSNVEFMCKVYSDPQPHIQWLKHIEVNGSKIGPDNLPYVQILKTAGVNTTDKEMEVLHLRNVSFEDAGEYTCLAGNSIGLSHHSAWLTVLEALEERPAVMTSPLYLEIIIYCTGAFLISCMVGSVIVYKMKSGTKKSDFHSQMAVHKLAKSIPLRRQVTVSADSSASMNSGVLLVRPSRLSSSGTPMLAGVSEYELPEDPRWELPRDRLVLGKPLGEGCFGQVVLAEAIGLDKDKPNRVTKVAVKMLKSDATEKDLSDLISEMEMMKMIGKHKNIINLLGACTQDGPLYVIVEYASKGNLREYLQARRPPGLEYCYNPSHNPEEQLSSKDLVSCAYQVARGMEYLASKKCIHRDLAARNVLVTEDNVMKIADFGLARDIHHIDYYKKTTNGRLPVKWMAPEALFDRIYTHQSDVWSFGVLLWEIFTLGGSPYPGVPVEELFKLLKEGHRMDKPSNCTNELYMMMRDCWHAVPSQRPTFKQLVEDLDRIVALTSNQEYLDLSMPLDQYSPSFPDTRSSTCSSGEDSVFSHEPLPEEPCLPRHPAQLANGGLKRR
Sequence of Jak2 (O60674 whole entry, looked up): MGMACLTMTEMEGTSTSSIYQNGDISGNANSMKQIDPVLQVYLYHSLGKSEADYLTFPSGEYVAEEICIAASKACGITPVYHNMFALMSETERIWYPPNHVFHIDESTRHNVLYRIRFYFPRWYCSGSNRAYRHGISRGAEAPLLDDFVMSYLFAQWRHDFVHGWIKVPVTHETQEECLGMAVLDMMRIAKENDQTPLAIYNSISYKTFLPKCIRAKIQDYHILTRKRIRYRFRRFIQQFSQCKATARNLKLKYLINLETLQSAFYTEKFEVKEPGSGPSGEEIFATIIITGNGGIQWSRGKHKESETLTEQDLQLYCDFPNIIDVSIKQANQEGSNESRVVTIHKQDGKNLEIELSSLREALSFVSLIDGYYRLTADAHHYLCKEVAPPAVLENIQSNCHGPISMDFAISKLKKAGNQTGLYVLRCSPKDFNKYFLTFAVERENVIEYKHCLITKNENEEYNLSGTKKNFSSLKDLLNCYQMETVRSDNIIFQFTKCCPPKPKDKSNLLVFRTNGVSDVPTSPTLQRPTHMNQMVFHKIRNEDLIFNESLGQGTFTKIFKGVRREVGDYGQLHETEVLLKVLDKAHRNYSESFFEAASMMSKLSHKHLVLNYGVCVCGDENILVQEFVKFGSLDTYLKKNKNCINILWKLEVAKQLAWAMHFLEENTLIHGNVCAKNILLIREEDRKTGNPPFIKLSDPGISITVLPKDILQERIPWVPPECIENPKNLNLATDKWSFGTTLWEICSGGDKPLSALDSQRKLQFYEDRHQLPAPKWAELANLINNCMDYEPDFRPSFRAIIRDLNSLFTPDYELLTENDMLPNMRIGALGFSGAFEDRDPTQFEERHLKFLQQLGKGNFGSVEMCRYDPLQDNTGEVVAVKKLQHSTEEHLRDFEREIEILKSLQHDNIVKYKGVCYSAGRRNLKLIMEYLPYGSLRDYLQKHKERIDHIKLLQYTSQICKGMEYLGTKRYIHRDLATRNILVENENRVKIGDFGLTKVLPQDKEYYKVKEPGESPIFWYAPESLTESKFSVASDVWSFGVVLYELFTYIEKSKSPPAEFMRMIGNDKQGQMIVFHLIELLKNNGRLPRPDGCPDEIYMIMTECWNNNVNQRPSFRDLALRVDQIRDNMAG

Row | Sequence | phosphorylation enrichment (FGFR3) | phosphorylation enrichment (Fer (mouse)) | phosphorylation enrichment (c-Src) | phosphorylation enrichment (EPHB2) | phosphorylation enrichment (EPHB1) | phosphorylation enrichment (Fyn) | phosphorylation enrichment (Jak2) | phosphorylation enrichment (Fes) | phosphorylation enrichment (Hck) | phosphorylation enrichment (FGFR1) | phosphorylation enrichment (MERTK) | phosphorylation enrichment (c-Abl (mouse)) | phosphorylation enrichment (AncSZ) | SH2 binding enrichment (SHP2-C SH2) | SH2 binding enrichment (c-Src SH2) | SH2 binding enrichment (Grb2 SH2)
1 | SHNKYYMLVAH [MFSD8_Y134_R139H] | 4.22 | 1.09 | 0.418 | 0.651 | 1.06 | 0.418 | 1.32 | 0.757 | 0.533 | 6.21 | 3.19 | 0.574 | 0.821 | 30 | 2.35 | 1.69
2 | SVTCTFSPALN [TP53_Y126_Y126F] | 1.03 | 0.673 | 0.541 | 0.675 | 0.845 | 0.562 | 1.74 | 1.89 | 0.621 | 0.602 | 0.515 | 1.19 | 2.01 | 0.494 | 0.473 | 0.627
3 | YSMGCYEFSLG [HMGCL_Y198_I200F] | 1.37 | 4.95 | 2.37 | 1.37 | 1.52 | 2.12 | 1.06 | 1.39 | 1.25 | 1.23 | 3.64 | 0.864 | 2.47 | 0.864 | 0.701 | 0.8
4 | PKGTGCIKTEL [STAT1_Y701_Y701C] | 0.759 | 0.726 | 0.457 | 0.54 | 0.774 | 0.443 | 0.808 | 1.27 | 0.689 | 0.558 | 0.74 | 1.04 | 1.05 | 0.73 | 0.586 | 0.772
5 | KKYFSYAWPFY [BRDT_Y291_H288Y] | 0.621 | 0.395 | 0.435 | 0.452 | 0.497 | 0.383 | 1.24 | 1.03 | 0.415 | 0.475 | 1.96 | 0.712 | 0.937 | 1.66 | 1.43 | 1.93
6 | IGEGTSGVVYK [CDK2_Y15_Y15S] | 0.426 | 0.339 | 0.29 | 0.319 | 0.374 | 0.28 | 0.494 | 0.616 | 0.306 | 0.299 | 0.274 | 0.5 | 0.574 | 0.562 | 0.361 | 0.639
7 | SHNELYFEAAE [VANGL1_Y344_E347A_YF] | 1.1 | 0.476 | 0.522 | 0.733 | 0.509 | 0.591 | 0.781 | 1.04 | 0.656 | 1.13 | 0.543 | 0.624 | 1.11 | 0.614 | 0.544 | 0.763
8 | EGWQVYRLGAR [MISP_Y95] | 0.607 | 0.396 | 4.5 | 0.439 | 0.493 | 2.59 | 0.697 | 0.857 | 1.12 | 0.5 | 0.423 | 0.625 | 0.9 | 0.662 | 0.515 | 0.901
9 | EAVSIYQFYGQ [CBLC_Y402_H405Y] | 1.77 | 9.22 | 7.02 | 11.6 | 10.1 | 9.16 | 1.22 | 1.38 | 7.5 | 1.6 | 9.05 | 4.8 | 2.11 | 0.857 | 0.574 | 0.821
10 | PIDLYYLMDLS [ITGB2_Y131] | 18.6 | 9.5 | 6.67 | 12.5 | 13.5 | 8.8 | 8.57 | 4.2 | 7.58 | 17.4 | 13.3 | 1.09 | 6.05 | 0.911 | 0.67 | 0.922
11 | FDAHNYHPLPV [OAT_Y55_G51D_YF] | 5.97 | 1.13 | 0.556 | 0.762 | 0.635 | 0.501 | 1.02 | 0.734 | 1.1 | 10.7 | 1.09 | 0.807 | 0.731 | 0.634 | 0.841 | 0.731
12 | LHRAHYDLHHT [AHSG_Y314_R317H] | 0.857 | 1.36 | 0.505 | 0.674 | 0.69 | 0.637 | 0.646 | 1.01 | 0.553 | 0.511 | 0.496 | 0.781 | 0.836 | 1.92 | 1.86 | 1.95
13 | EEQKKYFNATK [SCN5A_Y1494_M1498T_YF] | 0.582 | 0.366 | 0.377 | 0.479 | 0.356 | 0.34 | 0.6 | 0.729 | 0.379 | 0.49 | 0.269 | 0.459 | 0.607 | 0.516 | 0.581 | 0.766
14 | AAVNGYVFGGG [ECHS1_Y137_A138V] | 0.629 | 0.414 | 0.461 | 0.398 | 0.419 | 0.404 | 0.591 | 0.542 | 0.429 | 0.437 | 0.401 | 0.582 | 0.596 | 0.994 | 0.489 | 0.791
15 | VDLIVYLRTNP [TK2_Y181] | 0.711 | 0.432 | 0.364 | 0.589 | 0.65 | 0.434 | 1.06 | 1.26 | 0.352 | 0.358 | 0.328 | 0.875 | 1.12 | 0.623 | 0.468 | 0.709
16 | GMEIVYVFVKK [DNAI2_Y5_YF] | 0.862 | 0.58 | 0.627 | 0.654 | 0.709 | 0.554 | 1.59 | 1.44 | 0.673 | 0.587 | 0.481 | 1.22 | 1.4 | 0.787 | 0.556 | 0.941
17 | QRRNVYFFSFL [PTEN_Y176_Y174N_YF] | 0.728 | 0.398 | 0.67 | 0.475 | 0.649 | 1.15 | 1.13 | 1.42 | 0.34 | 0.562 | 0.5 | 0.509 | 1.11 | 1.8 | 0.92 | 1.13
18 | TARWEYMHSPS [CPOX_Y429] | 0.69 | 0.334 | 1.14 | 0.624 | 0.965 | 0.387 | 1.23 | 2.01 | 0.356 | 0.536 | 1.08 | 0.363 | 0.927 | 0.778 | 0.688 | 1.25
19 | DSSIRYLQEIF [FGG_Y135_YF] | 0.604 | 0.417 | 0.497 | 0.5 | 0.576 | 0.559 | 0.755 | 0.924 | 0.527 | 0.632 | 0.542 | 0.545 | 0.868 | 0.693 | 0.473 | 0.856
20 | KINKMYSDRAM | 0.371 | 0.336 | 0.345 | 0.377 | 0.311 | 0.361 | 0.419 | 0.624 | 0.396 | 0.417 | 0.423 | 0.467 | 0.53 | 0.639 | 0.418 | 0.632
21 | QWLEQYTQAIE [LSP1_Y234] | 0.589 | 0.473 | 0.406 | 0.623 | 0.579 | 0.596 | 0.924 | 1.15 | 0.699 | 0.489 | 0.37 | 10.2 | 1.4 | 0.574 | 0.709 | 0.876
22 | SYDLDYDSVQP [MYC_Y16_N11S] | 0.862 | 0.995 | 0.796 | 1.73 | 1.03 | 0.723 | 1.04 | 1.21 | 0.762 | 0.589 | 0.443 | 0.741 | 2.5 | 0.633 | 1.19 | 0.804
